Experimental data: US20220000998A1

B1: IBIIICI-b scFv (scFv)
scFv: EVRLLQSGAALVRPGASVKLSCTASGFNIKDFNIHWVKQRPEQGLEWIGRIDPENGDAEYVPKFQVRATMTTDTSSNTVYLHLSSLTSGDTAVYYCTTGSYDLDVEYWGQGTTLTVSSGGGGSGGGGSGGGGSGGGGSELQMTQSPSSLSASLGDTVTITCHASQNINVWLSWYQQRPGNIPKLLIYKASTLHTGVPSRFRGSGSGTGFTLTISSLQPEDIATYYCQQGQSYPLTFGAGTKLELK
B2: 14GIIICII-b scFv (scFv)
scFv: QVQLQQPGAELVMPGASVNLSCKASGYTFTDYWMHWVKQRPGQGLEWIGEIDPSDNFSNLNQNFRGKATLTVDKSSRTAFLQLSSLTSEDSAVYYCAVEDYWGQGTTLTVSSGGGGSGGGGSGGGGSGGGGSDIVMTQATPSVLVTPGEAVSISCRASRSLLHSNGITYLYWFLQRPGQSPQVLIYRMSNLVSGVPDRFSGSGSGTAFTLRISRVEAEDVGVYYCMQHLEFPYTFGGGTKLEIK
B3: scFv Y-SM083-p04-D04 (scFv)
scFv: EVQLLESGGGLVQPGGSLRLSCAASGFTFSGYYMYWVRQAPGKGLEWVSYIGYSGGGTGYADSVKGRFTISRDNSKNTLYLQMNSLRAEDTAVYYCARVPFGAFDYWGQGTLVTVSSGGGGSGGGGSGGGGSDIQMTQSPSSLSASVGDRVTITCRASQSISSYLNWYQQKPGKAPKLLIYAASSLQSGVPSRFSGSGSGTDFTLTISSLQPEDFATYYCQQYYGFPYTFGQGTKLEIK

What was measured:
[1] = molecular target: MTTE peptide (minimal tetanus toxin epitope), biotinylated (Clostridium tetani)
[2] = molecular target: SM083P004 (Clostridium tetani)

Binder	Kd [1]	koff [1]	kon [1]	Kd [2]	koff [2]	kon [2]
B1	0.52 nM	0.00048 s⁻¹	920000 M⁻¹ s⁻¹	–	–	–
B2	1.8 nM	0.00032 s⁻¹	180000 M⁻¹ s⁻¹	–	–	–
B3	–	–	–	3.3 nM	0.00043 s⁻¹	130000 M⁻¹ s⁻¹
